The chains are these.
T1: MICB*02 α1α2-platform domain (MICBpf) (human)
T1 chain: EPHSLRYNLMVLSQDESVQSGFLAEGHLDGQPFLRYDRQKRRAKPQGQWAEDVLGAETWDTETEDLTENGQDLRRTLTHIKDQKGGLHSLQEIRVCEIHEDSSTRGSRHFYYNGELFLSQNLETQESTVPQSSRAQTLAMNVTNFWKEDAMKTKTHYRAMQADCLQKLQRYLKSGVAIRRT

T2: MICB*02 ectodomain (domains α1, α2 and α3) (human, UniProt Q29980 23-298)
T2 chain: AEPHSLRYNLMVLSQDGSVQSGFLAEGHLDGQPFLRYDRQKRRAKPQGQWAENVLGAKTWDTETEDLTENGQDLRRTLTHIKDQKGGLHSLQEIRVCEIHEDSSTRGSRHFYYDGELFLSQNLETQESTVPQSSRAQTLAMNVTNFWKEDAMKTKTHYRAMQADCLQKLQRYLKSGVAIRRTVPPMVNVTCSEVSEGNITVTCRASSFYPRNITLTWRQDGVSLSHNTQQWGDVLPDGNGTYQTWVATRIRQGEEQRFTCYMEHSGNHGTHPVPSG

T3: Fc-tagged ULBP1 (human, UniProt Q9BZM6 26-216)
T3 construct: ULBP1 (RAET1I), human NKG2D ligand; Captured by its Fc on a Protein A-G chip; also called RAET1I; source: bought: R&D Systems
T3 sequence: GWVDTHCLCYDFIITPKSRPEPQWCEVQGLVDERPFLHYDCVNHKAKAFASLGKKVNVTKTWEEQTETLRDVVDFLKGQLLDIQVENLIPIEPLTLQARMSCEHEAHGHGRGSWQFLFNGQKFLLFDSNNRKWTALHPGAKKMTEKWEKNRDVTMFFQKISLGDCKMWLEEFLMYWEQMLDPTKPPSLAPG

T4: Fc-tagged ULBP2 (human, UniProt Q9BZM5 26-217)
T4 construct: ULBP2 (RAET1H), human NKG2D ligand; Captured by its Fc on a Protein A-G chip; also called RAET1H; source: bought: R&D Systems
T4 sequence: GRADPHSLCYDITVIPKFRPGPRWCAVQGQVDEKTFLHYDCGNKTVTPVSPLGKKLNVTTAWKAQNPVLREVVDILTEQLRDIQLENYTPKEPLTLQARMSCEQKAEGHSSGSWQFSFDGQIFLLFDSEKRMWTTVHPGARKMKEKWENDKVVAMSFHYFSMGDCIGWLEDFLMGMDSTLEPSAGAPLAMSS

T5: MICB*02 ectodomain (domains α1, α2 and α3) (human, UniProt Q29980 23-298)
T5 construct: also called complete MICB ectodomain; MICBα1α3
T5 sequence: T2 chain

B1: UL16 ectodomain, monomeric, untagged (domain or fragment)
chain: VDLGSKSSNSTCRLNVTELASIHPGETWTLHGMCISICYYENVTEDEIIGVAFTWQHNESVVDLWLYQNDTVIRNFSDITTNILQDGLKMRTVPVTKLYTSRMVTNLTVGRYDCLRCENGTTKIIERLYVRLGSLYPRPPGSGLAKHPSVSADEELSA
modifications: N-linked glycans; N-acetylglucosamine seen at asparagines 35, 41, 68, 84, 95, 101 and 132 in the crystal (after EndoH)
notes: UL16 of human cytomegalovirus, ectodomain residues 27-184; the cDNA construct also held the N-terminal signal peptide (residues 1-26), then a thrombin cleavage site and human IgG1-Fc; Residues of the thrombin site may remain at the C-terminus after cleavage; For the crystal the complex was partly deglycosylated with EndoH after complex formation; for SPR the glycosylated protein was used; also …
B2: MICB*02 α1α2-platform domain (MICBpf) (domain or fragment)
chain: T1 chain

Test [1] concerns the target T1, MICB*02 α1α2-platform domain (MICBpf). The test can be described thus: SPR; kinetic fit.
In test [2] the target is T2, MICB*02 ectodomain (domains α1, α2 and …). In words: SPR; kinetic fit.
Test [3] has as its target T3, Fc-tagged ULBP1. In words: SPR; Fc-tagged ULBP ligands captured on a Protein A-G CM5 chip, diluted in HBS-EP pH 7.4 at 25°C; untagged monomeric UL16 as analyte, 50 µl/min; regeneration with 10 mM glycine pH 1.7. The note with it: both partners purified.
Test [4] concerns the target T4, Fc-tagged ULBP2. The test is described as above. The note with it: both partners purified.
Test [5] deals with T5, MICB*02 ectodomain (domains α1, α2 and …). In words: SPR; MICBpf or MICB α1-α3 covalently immobilised on a CM5 chip by amine coupling; untagged monomeric UL16 as analyte, 50 µl/min; kinetic fit (1:1 binding with mass transfer) and equilibrium fit (1:1 Langmuir isotherm); chip not regenerated. The note with it: both partners purified.
In test [6] the target is B1. The test is described as above. Conditions: both partners purified.

With B1, the results for the koff in test [1] and in test [2] were 0.054 s⁻¹ and 0.045 s⁻¹, respectively. Moreover, the Kd stood at 12 nM in test [3] and 67 nM in test [5]. Besides, the binding result in test [4] is reported as “binds”.
The molecule B2 came in with a Kd in test [6] of 66 nM.

Source of the values: PMC2797645, “Structure of the HCMV UL16-MICB Complex Elucidates Select Binding of a Viral Immunoevasin to Diverse NKG2D Ligands” (PLoS Pathogens, 2010).
